Experimental findings from PMC11574045, “A cofactor-induced repressive type of transcription factor condensation can be induced by synthetic peptides to suppress tumorigenesis” (The EMBO Journal, 2024) are described below.

The test system of the assay is HEK293FT cells transfected with TF library. Nature of the assay: Screening of TF condensates based on fluorescent puncta. In kind it is cell-based. Conditions: Figure 1B numerical data; TF library screen, one value per transcriptional factor. Put shortly: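 HEK293FT cells were reverse-transfected with Flag- or GAL4-tagged TF plasmids (1.6 μg/ml, PEI). After 60 h, cells were cultured 12 h with or without glucose, then fixed and immunostained with anti-Flag or anti-GAL4 and Alexa 488 secondaries. Fluorescent puncta were imaged over fifty random fields per well by high-content imaging.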

B1: AATF (protein, UniProt Q9JKX4 2-526, looked up)
Protein AATF: AAPQPLALQLEQLLNPRPREADPEADPEEATRARVIDRFDEGEEEKDDLAVSSIRKLAPVSLLDTDKRYSGKTTSRKAWKEDHWEQALPSSSDNEASDEGGSEDGDSEGLGLEEISEDVDEDLEDNKISDEGGSEDGDSEGLGLEEFSEDVEEDLEGEDEEDREEDRNSEDDGVVAAFSSVKVSEEVEKGRAVKNQIALWDQLLEGRIKLQKALLTTNQLPQPDVFPVFKDKGGPEFASALKNSHKALKALLRSLVDLQEELLFQYPDTRHIVNGAKPNTESEEISSEDDELVGEKKKQRKAPPKRKLEMEDYPSFMAKRFADFTIYRNHTLQKWHDKTKLASGKLGKGFGAFERSILTQIDHIMMDKERLLRRTQTKRSAYRVLGKPEPVPEPVAETLPGEPETLPQGPANAHLRDLDEEIFDDDDFYHQLLRELIERKTSSLDPNDQVAMGRQWLAIQKLRSKIRKKVDRKASKGRKLRFHVLSKLLSFMAPIDHTAMSDDARTELFRSLFGQLNPPDADRGK
Regarding B1, the “Z score of condensed fraction” value was -0.6879.

B2: ABT1 (protein, UniProt Q9ULW3 1-272, looked up)
Activator of basal …: MEAEESEKAATEQEPLEGTEQTLDAEEEQEESEEAACGSKKRVVPGIVYLGHIPPRFRPLHVRNLLSAYGEVGRVFFQAEDRFVRRKKKAAAAAGGKKRSYTKDYTEGWVEFRDKRIAKRVAASLHNTPMGARRRSPFRYDLWNLKYLHRFTWSHLSEHLAFERQVRRQRLRAEVAQAKRETDFYLQSVERGQRFLAADGDPARPDGSWTFAQRPTEQELRARKAARPGGRERARLATAQDKARSNKGLLARIFGAPPPSESMEGPSLVRDS
In the case of B2, the “Z score of condensed fraction” value is listed as -0.3156.

B3: CLOCK (protein, UniProt O15516 1-846, looked up)
Circadian locomoter output …: MLFTVSCSKMSSIVDRDDSSIFDGLVEEDDKDKAKRVSRNKSEKKRRDQFNVLIKELGSMLPGNARKMDKSTVLQKSIDFLRKHKEITAQSDASEIRQDWKPTFLSNEEFTQLMLEALDGFFLAIMTDGSIIYVSESVTSLLEHLPSDLVDQSIFNFIPEGEHSEVYKILSTHLLESDSLTPEYLKSKNQLEFCCHMLRGTIDPKEPSTYEYVKFIGNFKSLNSVSSSAHNGFEGTIQRTHRPSYEDRVCFVATVRLATPQFIKEMCTVEEPNEEFTSRHSLEWKFLFLDHRAPPIIGYLPFEVLGTSGYDYYHVDDLENLAKCHEHLMQYGKGKSCYYRFLTKGQQWIWLQTHYYITYHQWNSRPEFIVCTHTVVSYAEVRAERRRELGIEESLPETAADKSQDSGSDNRINTVSLKEALERFDHSPTPSASSRSSRKSSHTAVSDPSSTPTKIPTDTSTPPRQHLPAHEKMVQRRSSFSSQSINSQSVGSSLTQPVMSQATNLPIPQGMSQFQFSAQLGAMQHLKDQLEQRTRMIEANIHRQQEELRKIQEQLQMVHGQGLQMFLQQSNPGLNFGSVQLSSGNSSNIQQLAPINMQGQVVPTNQIQSGMNTGHIGTTQHMIQQQTLQSTSTQSQQNVLSGHSQQTSLPSQTQSTLTAPLYNTMVISQPAAGSMVQIPSSMPQNSTQSAAVTTFTQDRQIRFSQGQQLVTKLVTAPVACGAVMVPSTMLMGQVVTAYPTFATQQQQSQTLSVTQQQQQQSSQEQQLTSVQQPSQAQLTQPPQQFLQTSRLLHGNPSTQLILSAAFPLQQSTFPQSHHQQHQSQQQQQLSRHRTDSLPDPSKVQPQ
With B3, the “Z score of condensed fraction” value is recorded as -0.2095.

B4: CREBL2 (protein, UniProt O60519 1-120, looked up)
cAMP-responsive …: MDDSKVVGGKVKKPGKRGRKPAKIDLKAKLERSRQSARECRARKKLRYQYLEELVSSRERAICALREELEMYKQWCMAMDQGKIPSEIKALLTGEEQNKSQQNSSRHTKAGKTDANSNSW
Take B4: the “Z score of condensed fraction” value turned out to be 0.3406.

B5: CEBPG (protein, UniProt P53567 1-150, looked up)
CCAAT/enhancer-binding …: MSKISQQNSTPGVNGISVIHTQAHASGLQQVPQLVPAGPGGGGKAVAPSKQSKKSSPMDRNSDEYRQRRERNNMAVKKSRLKSKQKAQDTLQRVNQLKEENERLEAKIKLLTKELSVLKDLFLEHAHNLADNVQSISTENTTADGDNAGQ
B5: the “Z score of condensed fraction” value is reported as 0.2566.

B6: CREB5 (protein, UniProt Q02930 1-508, looked up)
Cyclic AMP-responsive …: MIYEESKMNLEQERPFVCSAPGCSQRFPTEDHLMIHRHKHEMTLKFPSIKTDNMLSDQTPTPTRFLKNCEEVGLFSELDCSLEHEFRKAQEEESSKRNISMHNAVGGAMTGPGTHQLSSARLPNHDTNVVIQQAMPSPQSSSVITQAPSTNRQIGPVPGSLSSLLHLHNRQRQPMPASMPGTLPNPTMPGSSAVLMPMERQMSVNSSIMGMQGPNLSNPCASPQVQPMHSEAKMRLKAALTHHPAAMSNGNMNTMGHMMEMMGSRQDQTPHHHMHSHPHQHQTLPPHHPYPHQHQHPAHHPHPQPHHQQNHPHHHSHSHLHAHPAHHQTSPHPPLHTGNQAQVSPATQQMQPTQTIQPPQPTGGRRRRVVDEDPDERRRKFLERNRAAATRCRQKRKVWVMSLEKKAEELTQTNMQLQNEVSMLKNEVAQLKQLLLTHKDCPITAMQKESQGYLSPESSPPASPVPACSQQQVIQHNTITTSSSVSEVVGSSTLSQLTTHRTDLNPIL
On to B6, for which the “Z score of condensed fraction” value is -0.7141.

B7: ZZZ3 (protein, UniProt Q8IYH5 1-903, looked up)
ZZ-type zinc …: MAASRSTRVTRSTVGLNGLDESFCGRTLRNRSIAHPEEISSNSQVRSRSPKKRPEPVPIQKGNNNGRTTDLKQQSTRESWVSPRKRGLSSSEKDNIERQAIENCERRQTEPVSPVLKRIKRCLRSEAPNSSEEDSPIKSDKESVEQRSTVVDNDADFQGTKRACRCLILDDCEKREIKKVNVSEEGPLNSAVVEEITGYLAVNGVDDSDSAVINCDDCQPDGNTKQNSIGSYVLQEKSVAENGDTDTQTSMFLDSRKEDSYIDHKVPCTDSQVQVKLEDHKIVTACLPVEHVNQLTTEPATGPFSETQSSLRDSEEEVDVVGDSSASKEQCKENTNNELDTSLESMPASGEPEPSPVLDCVSAQMMSLSEPQEHRYTLRTSPRRAAPTRGSPTKNSSPYRENGQFEENNLSPNETNATVSDNVSQSPTNPGEISQNEKGICCDSQNNGSEGVSKPPSEARLNIGHLPSAKESASQHITEEEDDDPDVYYFESDHVALKHNKDYQRLLQTIAVLEAQRSQAVQDLESLGRHQREALKNPIGFVEKLQKKADIGLPYPQRVVQLPEIVWDQYTHSLGNFEREFKNRKRHTRRVKLVFDKVGLPARPKSPLDPKKDGESLSYSMLPLSDGPEGSSSRPQMIRGRLCDDTKPETFNQLWTVEEQKKLEQLLIKYPPEEVESRRWQKIADELGNRTAKQVASRVQKYFIKLTKAGIPVPGRTPNLYIYSKKSSTSRRQHPLNKHLFKPSTFMTSHEPPVYMDEDDDRSCFHSHMNTAVEDASDDESIPIMYRNLPEYKELLQFKKLKKQKLQQMQAESGFVQHVGFKCDNCGIEPIQGVRWHCQDCPPEMSLDFCDSCSDCLHETDIHKEDHQLEPIYRSETFLDRDYCVSQGTSYNYLDPNYFPANR
As for B7, the “Z score of condensed fraction” value was -0.9122.

B8: ZXDA (protein, UniProt P98168 1-799, looked up)
Zinc finger X-linked protein …: MEIPKLLPARGTLQGGGGGGIPAGGGRVHRGPDSPAGQVPTRRLLLPRGPQDGGPGRRREEASTASRGPGPSLFAPRPHQPSGGGDDFFLVLLDPVGGDVETAGSGQAAGPVLREEAKAGPGLQGDESGANPAGCSAQGPHCLSAVPTPAPISAPGPAAAFAGTVTIHNQDLLLRFENGVLTLATPPPHAWEPGAAPAQQPRCLIAPQAGFPQAAHPGDCPELRSDLLLAEPAEPAPAPAPQEEAEGLAAALGPRGLLGSGPGVVLYLCPEALCGQTFAKKHQLKMHLLTHSSSQGQRPFKCPLGGCGWTFTTSYKLKRHLQSHDKLRPFGCPAEGCGKSFTTVYNLKAHMKGHEQENSFKCEVCEESFPTQAKLGAHQRSHFEPERPYQCAFSGCKKTFITVSALFSHNRAHFREQELFSCSFPGCSKQYDKACRLKIHLRSHTGERPFLCDFDGCGWNFTSMSKLLRHKRKHDDDRRFMCPVEGCGKSFTRAEHLKGHSITHLGTKPFVCPVAGCCARFSARSSLYIHSKKHLQDVDTWKSRCPISSCNKLFTSKHSMKTHMVKRHKVGQDLLAQLEAANSLTPSSELTSQRQNDLSDAEIVSLFSDVPDSTSAALLDTALVNSGILTIDVASVSSTLAGHLPANNNNSVGQAVDPPSLMATSDPPQSLDTSLFFGTAATGFQQSSLNMDEVSSVSVGPLGSLDSLAMKNSSPEPQALTPSSKLTVDTDTLTPSSTLCENSVSELLTPAKAEWSVHPNSDFFGQEGETQFGFPNAAGNHGSQKERNLITVTGSSFLV
With B8, the “Z score of condensed fraction” value was -0.8138.

B9: CJUN (protein, UniProt P05412 1-331, looked up)
Transcription factor Jun: MTAKMETTFYDDALNASFLPSESGPYGYSNPKILKQSMTLNLADPVGSLKPHLRAKNSDLLTSPDVGLLKLASPELERLIIQSSNGHITTTPTPTQFLCPKNVTDEQEGFAEGFVRALAELHSQNTLPSVTSAAQPVNGAGMVAPAVASVAGGSGSGGFSASLHSEPPVYANLSNFNPGALSSGGGAPSYGAAGLAFPAQPQQQQQPPHHLPQQMPVQHPRLQALKEEPQTVPEMPGETPPLSPIDMESQERIKAERKRMRNRIAASKCRKRKLERIARLEEKVKTLKAQNSELASTANMLREQVAQLKQKVMNHVNSGCQLMLTQQLQTF
For B9, the “Z score of condensed fraction” value is listed as 2.466.

B10: CREM (protein, UniProt Q03060 1-345, looked up)
cAMP-responsive element …: MTMETVESQHDGSITASLTESKSAHVQTQTGQNSIPALAQVSVAGSGTRRGSPAVTLVQLPSGQTIHVQGVIQTPQPWVIQSSEIHTVQVAAIAETDESAESEGVIDSHKRREILSRRPSYRKILNELSSDVPGVPKIEEERSEEEGTPPSIATMAVPTSIYQTSTGQYIAIAQGGTIQISNPGSDGVQGLQALTMTNSGAPPPGATIVQYAAQSADGTQQFFVPGSQVVVQDEETELAPSHMAAATGDMPTYQIRAPTAALPQGVVMAASPGSLHSPQQLAEEATRKRELRLMKNREAAKECRRRKKEYVKCLESRVAVLEVQNKKLIEELETLKDICSPKTDY
With B10, the “Z score of condensed fraction” value is given as -0.7399.

B11: CEBPD (protein, UniProt P49716 2-269, looked up)
CCAAT/enhancer-binding …: SAALFSLDGPARGAPWPAEPAPFYEPGRAGKPGRGAEPGALGEPGAAAPAMYDDESAIDFSAYIDSMAAVPTLELCHDELFADLFNSNHKAGGAGPLELLPGGPARPLGPGPAAPRLLKREPDWGDGDAPGSLLPAQVAACAQTVVSLAAAGQPTPPTSPEPPRSSPRQTPAPGPAREKSAGKRGPDRGSPEYRQRRERNNIAVRKSRDKAKRRNQEMQQKLVELSAENEKLHQRVEQLTRDLAGLRQFFKQLPSPPFLPAAGTADCR
Take B11: the “Z score of condensed fraction” value is on record as -0.4872.

B12: CEBPE (protein, UniProt Q15744 1-281, looked up)
CCAAT/enhancer-binding …: MSHGTYYECEPRGGQQPLEFSGGRAGPGELGDMCEHEASIDLSAYIESGEEQLLSDLFAVKPAPEARGLKGPGTPAFPHYLPPDPRPFAYPPHTFGPDRKALGPGIYSSPGSYDPRAVAVKEEPRGPEGSRAASRGSYNPLQYQVAHCGQTAMHLPPTLAAPGQPLRVLKAPLATAAPPCSPLLKAPSPAGPLHKGKKAVNKDSLEYRLRRERNNIAVRKSRDKAKRRILETQQKVLEYMAENERLRSRVEQLTQELDTLRNLFRQIPEAANLIKGVGGCS
Regarding B12, the “Z score of condensed fraction” value is recorded as -0.2607.
